From article PMC4027205, “TstI, a Type II restriction–modification protein with DNA recognition, cleavage and methylation functions in a single polypeptide”

Tests used:
[1] = molecular target: TstI RM protein (His-tagged form) (Thermus scotoductus RFL1); experiment: AUC; sedimentation equilibrium; TstI 0.1-0.3 mg/ml in 20 mM Tris-HCl pH 8.4, 100 mM KCl, 10 mM MgCl2, 20°C; 5000, 6000 and 7500 rpm; global fit to a single ideal species
[2] = molecular target: T1, TstI restriction-modification protein (His-tagged) (Thermus scotoductus RFL1 (printed as T. scotoductus RFL1)) (UniProt A6H2J1); experiment: cleavage kinetics: kobs vs enzyme concentration, hyperbolic fit (no direct binding read-out); settings: EMSA conditions not given (data not shown); cleavage in buffer R (composition not in material), 37 C
T1 sequence: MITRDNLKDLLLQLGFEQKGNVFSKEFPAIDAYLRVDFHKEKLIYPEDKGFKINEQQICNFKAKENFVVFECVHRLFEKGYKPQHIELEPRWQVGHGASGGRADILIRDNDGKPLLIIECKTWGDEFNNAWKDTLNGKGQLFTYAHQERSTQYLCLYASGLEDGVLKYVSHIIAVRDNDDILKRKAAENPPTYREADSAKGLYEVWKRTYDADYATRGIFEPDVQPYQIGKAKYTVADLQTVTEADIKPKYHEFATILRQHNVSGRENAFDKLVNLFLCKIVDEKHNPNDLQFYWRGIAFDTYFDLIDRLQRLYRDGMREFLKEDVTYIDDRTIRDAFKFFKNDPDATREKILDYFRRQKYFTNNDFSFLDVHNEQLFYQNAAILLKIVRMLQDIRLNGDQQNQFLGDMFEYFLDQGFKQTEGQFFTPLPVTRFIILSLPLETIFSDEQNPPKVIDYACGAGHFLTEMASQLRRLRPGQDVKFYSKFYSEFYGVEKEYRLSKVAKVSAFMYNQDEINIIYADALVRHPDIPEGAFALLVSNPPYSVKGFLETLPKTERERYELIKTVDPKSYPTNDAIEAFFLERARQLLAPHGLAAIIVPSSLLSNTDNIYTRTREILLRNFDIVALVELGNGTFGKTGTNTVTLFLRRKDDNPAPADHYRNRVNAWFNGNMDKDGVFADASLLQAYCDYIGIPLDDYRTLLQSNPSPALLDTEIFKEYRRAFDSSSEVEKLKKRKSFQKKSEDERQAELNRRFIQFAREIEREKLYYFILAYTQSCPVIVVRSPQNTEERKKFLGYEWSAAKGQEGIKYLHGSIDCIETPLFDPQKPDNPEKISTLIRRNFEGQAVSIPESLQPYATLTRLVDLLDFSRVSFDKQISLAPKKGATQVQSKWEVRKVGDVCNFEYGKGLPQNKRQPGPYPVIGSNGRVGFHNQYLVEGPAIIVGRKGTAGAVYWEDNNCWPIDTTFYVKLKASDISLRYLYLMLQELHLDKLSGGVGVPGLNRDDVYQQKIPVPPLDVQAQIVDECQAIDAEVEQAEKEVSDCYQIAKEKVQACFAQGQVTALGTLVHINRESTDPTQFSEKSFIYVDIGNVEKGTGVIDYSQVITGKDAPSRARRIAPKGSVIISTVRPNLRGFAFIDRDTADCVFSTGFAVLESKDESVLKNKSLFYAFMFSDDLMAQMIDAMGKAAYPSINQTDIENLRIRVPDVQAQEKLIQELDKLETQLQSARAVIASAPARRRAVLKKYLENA

[3] = molecular target: T2, TstI restriction-modification protein (His-tagged) (Thermus scotoductus RFL1 (printed as T. …, UniProt A6H2J1 1-1251)); experiment: EMSA; data not shown; EMSA conditions not given (data not shown); cleavage in buffer R (composition not in material), 37 C; settings: protein: recombinant; tags: N-terminal His tag (pET15b, 20 extra aa); chain copies: 4
T2 sequence: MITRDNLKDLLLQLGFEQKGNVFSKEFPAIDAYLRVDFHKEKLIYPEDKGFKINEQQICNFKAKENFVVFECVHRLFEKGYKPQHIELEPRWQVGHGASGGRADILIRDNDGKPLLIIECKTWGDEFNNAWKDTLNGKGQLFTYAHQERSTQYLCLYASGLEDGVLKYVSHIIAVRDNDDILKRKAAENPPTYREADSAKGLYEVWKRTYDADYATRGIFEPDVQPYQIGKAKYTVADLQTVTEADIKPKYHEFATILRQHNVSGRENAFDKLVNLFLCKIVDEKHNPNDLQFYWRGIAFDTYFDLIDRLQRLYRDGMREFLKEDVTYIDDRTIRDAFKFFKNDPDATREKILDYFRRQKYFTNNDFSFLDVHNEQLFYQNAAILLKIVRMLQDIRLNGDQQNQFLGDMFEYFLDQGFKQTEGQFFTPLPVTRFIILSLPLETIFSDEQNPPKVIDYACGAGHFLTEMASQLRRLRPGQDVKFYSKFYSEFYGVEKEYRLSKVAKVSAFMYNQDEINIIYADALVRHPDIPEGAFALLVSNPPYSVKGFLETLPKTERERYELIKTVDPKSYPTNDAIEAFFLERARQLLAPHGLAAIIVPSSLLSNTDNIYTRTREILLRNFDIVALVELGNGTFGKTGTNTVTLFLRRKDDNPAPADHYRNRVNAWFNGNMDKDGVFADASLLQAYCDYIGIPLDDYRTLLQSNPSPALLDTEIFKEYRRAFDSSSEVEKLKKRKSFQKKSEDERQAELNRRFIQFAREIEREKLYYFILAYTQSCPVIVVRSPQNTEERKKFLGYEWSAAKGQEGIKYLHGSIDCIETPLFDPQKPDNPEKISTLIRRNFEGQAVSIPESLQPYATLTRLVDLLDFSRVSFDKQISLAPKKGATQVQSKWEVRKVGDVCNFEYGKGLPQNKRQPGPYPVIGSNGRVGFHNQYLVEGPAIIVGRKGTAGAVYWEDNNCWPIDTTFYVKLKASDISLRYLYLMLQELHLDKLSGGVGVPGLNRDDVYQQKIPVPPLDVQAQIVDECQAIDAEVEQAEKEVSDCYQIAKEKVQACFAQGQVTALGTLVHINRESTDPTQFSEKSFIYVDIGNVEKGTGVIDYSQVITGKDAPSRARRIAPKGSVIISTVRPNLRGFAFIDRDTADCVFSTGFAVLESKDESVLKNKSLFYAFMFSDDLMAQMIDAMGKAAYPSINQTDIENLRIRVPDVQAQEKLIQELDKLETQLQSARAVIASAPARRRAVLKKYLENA

TstI RM protein (His-tagged form) (enzyme)
stoichiometry N [1]: 4

pTST1
K half [2]: 19 nM

B1: 50NS (dsDNA)
DNA 1: CTGTCTGAGATACACTCGTCTCGAACAAACCATCCAGTCTCTGACTATGT
DNA 2: ACATAGTCAGAGACTGGATGGTTTGTTCGAGACGAGTGTATCTCAGACAG
binding result [3]: binds
